Drawing on US20200308303A1, this text covers half maximal inhibitory concentration (IC50) of ADAMTS13 activity in normal human plasma, FRETS-VWF73 assay and half-maximal binding concentration (EC50) of coated antibody for 1 molecule.

For assay [1], the target named is human ADAMTS13 (A Disintegrin And Metalloproteinase with a ThromboSpondin type 1 motif, member 13) (human) (UniProt Q76LX8). Briefly: cell-based or functional assay.
Assay [2] shares this target. Description: sandwich ELISA: dilution series of coated antibody (10 to 0.02 µg/mL), constant 15% normal human plasma; half maximal binding by nonlinear regression. In general terms: In an ELISA, binding on a coated surface is turned into a signal by an enzyme label.

Chain of human ADAMTS13 (A Disintegrin And Metalloproteinase with a ThromboSpondin type 1 motif, member 13) (human) (Q76LX8 75-1427): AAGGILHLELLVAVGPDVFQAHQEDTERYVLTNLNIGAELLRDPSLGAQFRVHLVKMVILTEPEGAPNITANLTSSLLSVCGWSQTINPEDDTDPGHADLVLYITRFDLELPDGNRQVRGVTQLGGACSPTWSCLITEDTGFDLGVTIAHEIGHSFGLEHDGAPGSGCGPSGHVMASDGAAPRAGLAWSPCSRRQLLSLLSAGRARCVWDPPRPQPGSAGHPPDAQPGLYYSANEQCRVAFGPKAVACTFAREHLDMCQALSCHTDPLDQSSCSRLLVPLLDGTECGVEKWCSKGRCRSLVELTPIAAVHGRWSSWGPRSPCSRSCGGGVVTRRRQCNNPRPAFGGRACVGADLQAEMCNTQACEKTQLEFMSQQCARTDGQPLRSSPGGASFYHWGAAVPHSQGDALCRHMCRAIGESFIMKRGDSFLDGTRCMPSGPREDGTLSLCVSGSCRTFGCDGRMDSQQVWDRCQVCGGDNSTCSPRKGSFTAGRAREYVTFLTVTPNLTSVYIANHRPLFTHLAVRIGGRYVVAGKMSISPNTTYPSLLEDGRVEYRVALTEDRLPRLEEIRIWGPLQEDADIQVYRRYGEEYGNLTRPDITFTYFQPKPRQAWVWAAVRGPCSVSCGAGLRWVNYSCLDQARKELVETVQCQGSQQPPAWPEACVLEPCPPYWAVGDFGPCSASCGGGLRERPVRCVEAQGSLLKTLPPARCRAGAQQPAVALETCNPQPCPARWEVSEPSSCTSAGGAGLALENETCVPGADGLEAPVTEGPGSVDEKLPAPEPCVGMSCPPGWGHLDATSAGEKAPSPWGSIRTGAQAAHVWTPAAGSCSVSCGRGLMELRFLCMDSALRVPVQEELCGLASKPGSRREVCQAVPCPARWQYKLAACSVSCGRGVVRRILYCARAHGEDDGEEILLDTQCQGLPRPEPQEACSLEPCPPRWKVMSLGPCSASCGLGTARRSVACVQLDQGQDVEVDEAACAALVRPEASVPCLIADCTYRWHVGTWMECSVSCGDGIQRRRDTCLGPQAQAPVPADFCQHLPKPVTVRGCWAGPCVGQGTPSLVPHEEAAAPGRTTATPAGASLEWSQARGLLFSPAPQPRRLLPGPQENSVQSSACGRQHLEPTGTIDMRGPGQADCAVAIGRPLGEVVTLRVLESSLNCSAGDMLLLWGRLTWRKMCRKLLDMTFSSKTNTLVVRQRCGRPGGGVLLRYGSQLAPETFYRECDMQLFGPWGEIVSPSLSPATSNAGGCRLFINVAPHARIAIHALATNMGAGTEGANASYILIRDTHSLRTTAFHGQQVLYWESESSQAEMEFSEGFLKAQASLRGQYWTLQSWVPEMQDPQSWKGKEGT

B1: monoclonal anti-ADAMTS13 antibody 17C7 (antibody, V domains shown)
VH: EVQLVESGGDLVKSGGSLKLSCAASGFIFSNYAMSWVRQTPEKRLEWGATITTGGFYTFYSDSVKGRFTISRDNAKNTLYLQMSSLRSEDTAMYYCARHRYDDYYALDYWGQGTSVTVSS
VL: ENVLTQSPAIMSTSPGEKVTMTCNVSSSVSYMRWFQQKSSTSPKLWIYDTSKLASGVPGRFSGSGSGHSYSLTISSMEADDVATYYCFQGNGYPLTFGAGTKLELK
modifications: Biotinylated when used as detector; the site is not stated and the letters cannot carry it.
B1 returned a half maximal inhibitory concentration (IC50) of ADAMTS13 activity in normal human plasma, FRETS-VWF73 assay in assay [1] of 0.47 µg/mL. In assay [2], this molecule returned a half-maximal binding concentration (EC50) of coated antibody of 0.51 µg/mL.
